The source of these data is US20090062150A1 (published 2009).

This assay concerns the target T1, 7-mer (AGAIAGG) derived from Toxoplasma gondii micronemal proteins (MIC2) (Toxoplasma gondii).
T1 construct: also called MIC2 peptide; MC2
The assay is described as follows: crystal soak, X-ray structure.

B1: N-terminally truncated GlpG transmembrane core domain (residues 87-276), E. coli rhomboid protease (enzyme)
chain: AALRERAGPVTWVMMIACVVVFIAMQILGDQEVMLWLAWPFDPTLKFEFWRYFTHALMHFSLMHILFNLLWWWYLGGAVEKRLGSGKLIVITLISALLSGYVQQKFSGPWFGGLSGVVYALMGYVWLRGERDPQSGIYLQRGLIIFALIWIVAGWFDLFGMSMANGAHIAGLAVGLAMAFVDSLNARKRK
notes: range 87-276; also called GlpG core; truncated GlpG core domain
B1: the binding result is “binds”.
